Experimental data published in patent US20200407750A1.

Assays:
[1] = target: AAV9.RGNRQ capsid mutant (adeno-associated virus 9 (AAV9), mutant); experiment: capsid capture ELISA, as told in the discussion
[2] = target: AAV9.SAQAA capsid mutant (adeno-associated virus 9 (AAV9), mutant); experiment: cell-based or functional assay
[3] = target: AAV9.QQNAA capsid mutant (adeno-associated virus 9 (AAV9), mutant); experiment: cell-based or functional assay
[4] = target: AAV9.SAQAN capsid mutant (adeno-associated virus 9 (AAV9), mutant); experiment: cell-based or functional assay
[5] = target: AAV9.SSNTA capsid mutant (adeno-associated virus 9 (AAV9), mutant); experiment: cell-based or functional assay
[6] = target: AAV9.RGHRE capsid mutant (adeno-associated virus 9 (AAV9), mutant); experiment: cell-based or functional assay
[7] = target: AAV9.RGNRQ capsid mutant (adeno-associated virus 9 (AAV9), mutant); experiment: cell-based or functional assay
[8] = target: AAV9.AAQAA capsid mutant (adeno-associated virus 9 (AAV9), mutant); experiment: cell-based or functional assay
[9] = target: AAV9.TQAAA capsid mutant (adeno-associated virus 9 (AAV9), mutant); experiment: cell-based or functional assay
[10] = target: AAV9.WT capsid (AAV9 vector) (adeno-associated virus 9 (AAV9)); experiment: cell-based or functional assay
[11] = target: AAV9.SAQAA capsid mutant (adeno-associated virus 9 (AAV9), mutant); experiment: capsid capture ELISA, EC50 from dose-response fit
[12] = target: AAV9.QQNAA capsid mutant (adeno-associated virus 9 (AAV9), mutant); experiment: capsid capture ELISA, EC50 from dose-response fit
[13] = target: AAV9.SAQAN capsid mutant (adeno-associated virus 9 (AAV9), mutant); experiment: capsid capture ELISA, EC50 from dose-response fit
[14] = target: AAV9.SSNTA capsid mutant (adeno-associated virus 9 (AAV9), mutant); experiment: capsid capture ELISA, EC50 from dose-response fit
[15] = target: AAV9.RGHRE capsid mutant (adeno-associated virus 9 (AAV9), mutant); experiment: capsid capture ELISA, EC50 from dose-response fit
[16] = target: AAV9.RGNRQ capsid mutant (adeno-associated virus 9 (AAV9), mutant); experiment: capsid capture ELISA, EC50 from dose-response fit
[17] = target: AAV9.AAQAA capsid mutant (adeno-associated virus 9 (AAV9), mutant); experiment: capsid capture ELISA, EC50 from dose-response fit
[18] = target: AAV9.TQAAA capsid mutant (adeno-associated virus 9 (AAV9), mutant); experiment: capsid capture ELISA, EC50 from dose-response fit
[19] = target: AAV9.WT capsid (AAV9 vector) (adeno-associated virus 9 (AAV9)); experiment: capsid capture ELISA, EC50 from dose-response fit

For PAV9.1 monoclonal antibody, which fold reduction in binding (relative to WT.AAV9) [1] is on record?
The fold reduction in binding (relative to WT.AAV9) was 50 fold.

And the Fold reduction NAb titer [2]?
The Fold reduction NAb titer was 4 fold.

And the Fold reduction NAb titer [3]?
The Fold reduction NAb titer was 128 fold.

And the Fold reduction NAb titer [4]?
The Fold reduction NAb titer was 16 fold.

And the Fold reduction NAb titer [5]?
The Fold reduction NAb titer was 512 fold.

And the Fold reduction NAb titer [6]?
Its Fold reduction NAb titer is greater than 2048 fold.

And the NAb titer of PAV9.1 (reciprocal dilution) [6]?
Its NAb titer of PAV9.1 (reciprocal dilution) is less than 80.

And the Fold reduction NAb titer [7]?
Its Fold reduction NAb titer is 8 fold.

And the Fold reduction NAb titer [8]?
The Fold reduction NAb titer was 16 fold.

What about the Fold reduction NAb titer [9] of the same substance?
Its Fold reduction NAb titer is 16 fold.

What about the Fold reduction NAb titer [10] of the same substance?
Its Fold reduction NAb titer is 1 fold.

And the effective NAb titer (NAb assay, transduction of HEK293 cells) (reciprocal dilution) [10]?
The effective NAb titer (NAb assay, transduction of HEK293 cells) (reciprocal dilution) was 164000.

What about the Fold increase EC50 (relative to AAV9.WT) [11] of the same substance?
The Fold increase EC50 (relative to AAV9.WT) was 20 fold.

What about the Fold increase EC50 (relative to AAV9.WT) [12] of the same substance?
The Fold increase EC50 (relative to AAV9.WT) was 124 fold.

What about the Fold increase EC50 (relative to AAV9.WT) [13] of the same substance?
The Fold increase EC50 (relative to AAV9.WT) was 40 fold.

And the Fold increase EC50 (relative to AAV9.WT) [14]?
Its Fold increase EC50 (relative to AAV9.WT) is 264 fold.

And the Fold increase EC50 (relative to AAV9.WT) [15]?
Its Fold increase EC50 (relative to AAV9.WT) is 294 fold.

What about the Fold increase EC50 (relative to AAV9.WT) [16] of the same substance?
Its Fold increase EC50 (relative to AAV9.WT) is 96 fold.

And the Fold increase EC50 (relative to AAV9.WT) [17]?
Its Fold increase EC50 (relative to AAV9.WT) is 45 fold.

And the Fold increase EC50 (relative to AAV9.WT) [18]?
Its Fold increase EC50 (relative to AAV9.WT) is 15 fold.

What about the Fold increase EC50 (relative to AAV9.WT) [19] of the same substance?
Its Fold increase EC50 (relative to AAV9.WT) is 1 fold.
